A short description of the data set: soluble on expression in E. coli; label from the status in PepcDB or PDB records.
On to “MGSDKIHHHHHHMLYNTDFLSRLTQGVKYLSSAWGLSSEAKLTLLTISENATFRIADENSGRNLIVRVHRPDYHTEAEILSELAWIDALRQDGVVVTPRPISANDGSLLQIFSDGETMRHAVAFEYMAGKEPDAESDLVHWYRTLGEINAKLHAHSRRWTRPENFIRKTWNFNRILGNGAYWGDWRDALGLKPDGKSVLERTHALLETQTSAYGYGEERFGLVHCDMRAANLLVDGDRLGVIDFDDCGLSWFAYDFAAAISFMEHEPFIPDLMAAWLEGYRRVAPLDAQHEAALPMFIMLRRMQLTAWIASHAETPTAQSMGTAYTDGTVALAECYLAEHR”, for which the “soluble on expression in E. coli” value is on record as “not soluble”. “MLKVESISKDYREFKLREISFDVREGEHFIILGPSGSGKTVLLEIIAGIISPDRGRILLRGEDITGLPPEKRNFSYIPQNYALFPHMTVFDNIAFGLKLRKIPRKEVARKVREVAESLGIDHLLHRKPRTLSGGEQQRVAIARALVVKPELLLMDEPFANLDVQTKSKLIREMKRWRKEFGFTAIHVTHSFEEALSLGDRVGIMLRGRLVQVGDVRDVFSKPKSEEVARFLGFENIIEGVANGRILKVGDLRIELPREVWGKVRVGIRPEDITIFMEGVKTSARNVFKARVEGIEDLGALVKLTLNLGGIILRAFITRSSLIELGIREGEEVYASFKASAIHVFP”: the “soluble on expression in E. coli” value is “soluble”.

As for “MGSDKIHHHHHHMATENALYEILTEKIKQDTLVLPTLPEVALKVRSAADDPDINLNQMSDIIAHDPALSLGMLKVANNALMGRSIKVETVPQAVTRIGLIQIKSIATAMAIEQVFVSNNDVVAMYMNKAWVKTIDIASVAISLMNIYLKENKHTSLSLDTITLASLIHNIGVLPILTEAENHPDVFANPTFLQQAIIKLSGRVGGAITRKWGFSEEFTLLAESWSDLTILPSEVHYLDFIRAGAIYHNVFKNESTKVALLNNYTKKGILPEVDYMDSDEFKGMCEDVRAMFI”, the “soluble on expression in E. coli” value is given as “not soluble”. “MAPVQGSYDYDLIVIGGGSAGLACAKEAVLNGARVACLDFVKPTPTLGTKWGVGGTCVNVGCIPKKLMHQASLLGEAVHEAAAYGWNVDDKIKPDWHKLVQSVQNHIKSVNWVTRVDLRDKKVEYINGLGSFVDSHTLLAKLKSGERTITAQTFVIAVGGRPRYPDIPGAVEYGITSDDLFSLDREPGKTLVVGAGYIGLECAGFLKGLGYEPTVMVRSIVLRGFDQQMAELVAASMEERGIPFLRKTVPLSVEKQDDGKLLVKYKNVETGEESEDVYDTVLWAIGRKGLVDDLNLPNAGVTVQKDKIPVDSQEATNVANIYAVGDIIYGKPELTPVAVLAGRLLARRLYGGSTQRMDYKDVATTVFTPLEYACVGLSEEDAVKQFGADEIEVFHGYYKPTEFFIPQKSVRYCYLKAVAERHGDQRVYGLHYIGPVAGEVIQGFAAALKSGLTINTLINTVGIHPTTAEEFTRLAITKRSGLDPTPAS”: the “soluble on expression in E. coli” value is “soluble”. “MGSDKIHHHHHHMKTPWLVNGKLANLYLLYGTERHLLEEWEREIVKAALPDGERFDYMKIDLNDQPLDAVLDEAETVPFLSDYRVVIAKPATFLTGAKDKKTHNVERLAEYIVQPADYAVVVLIVEAEKLDERKTIVKRLKDRAVILEAKKPTTEELFRFVMDAVNDKGYRMERPAIERLIFLTGEMWATLTRELDKLMLYAGDHPTIELEDVNLLVPRTLEDNVFQLTDYLMKRQLEPAIRLIRDLEKQGQEVLALLGLMARQYRMMLLSKRLAEQGYGERQIASKVGAHPYAIKLALQAGKRFTFAQLEQALVAITTTDEGMKTGRGDKRILFDALIVRLATL”: the “soluble on expression in E. coli” value is on record as “not soluble”. In the case of “MGSSHHHHHHSSGLVPRGSAKSFSSQKAYKIVLAGDAAVGKSSFLMRLCKNEFRENISATLGVDFQMKTLIVDGERTVLQLWDTAGQERFRSIAKSYFRKADGVLLLYDVTCEKSFLNIREWVDMIEDAAHETVPIMLVGNKADIRDTAATEGQKCVPGHFGEKLAMTYGALFCETSAKDGSNIVEAVLHLAREVKKRT”, the “soluble on expression in E. coli” value was “soluble”. Consider “MPGVKVKETESFELALKKFKKQCEKAGILSEVRKREHYEKPSIKRKKKAIAARKRAMKKQRKMMDLEHHHHHH”, for which the “soluble on expression in E. coli” value is “not soluble”. Then “ATGAAAAAATCAATCCTCAAATCTGTGTTAGCGTCTTCTATTACGCTTTCTATCACGCTAAGCAGCACTGCTTTCGCCTCTCCTATCGTGACACCAGACGCACCACAAATTGCCGCTAAAGGCTATGTACTGATGGATTACCATTCAGGAAAAGTGTTGGCTGAAAAAGAGATGGATACCAAACTCTCTCCTGCCAGCCTAACCAAGATGATGACCAGTTACGTGATCGGTCAAGAAGTAAAGCGTGGCAACATCTCGCTAAATGACGATGTCGTGATCAGCAAAAATGCTTGGGCGAAAAACTTCCCTGATTCTTCGAAAATGTTCGTTGAAGTCGGTACCACGGTTAAGGTCAGCGATCTCAACCGCGGCATCATCATCCAATCGGGTAATGATGCGTGTGTAGCGATGGCAGAGCACGTCGCAGGGACGGAAGATGCGTTTGTTGACCTGATGAACGCTTGGGCAAGCTCACTTGGGATGAAGAATTCGCACTTCACTAACTCTCACGGTTTGGACGATCCTAATCTTTACTCTACGCCATACGATCTGGCTCTACTTGGCCAAGCTCTGATCCGTGAWGTGCCTGAAGAGTACGCGATCTACTCCGAGCAAAAATTCACCTACAACGGCATCACTCAATACAACCGTAACGGTTTGCTTTGGGATAAAAGCATGAATGTGGACGGCATTAAAACCGGACATACGAGTGGTGCTGGCTATAACCTCGTGAGCTCTGCTACAGAAGGCAACATGCGCTTGGTTGCGGTGGTGATGGGTACTGACAACGAAAACGCGCGTAAAGCGGAAAGTAAGAAGCTACTGAGCTACGGTTTCCGCTTCTTTGAAACCGTGGCACCACACAAAGCGGGTGAAACTTTCGTGAATGAAACCATCTGGATGGGCGATAAAGACACGATTGCACTCGGTGTTGATAAAGATACTTACGTAACTTTGCCACGCGGACAGGCCAAAGATCTCACCGCCAGCTTTGTACTTGAAAAACAATTGAAAGCACCGCTGAAGAAAGGCGATATCGTCGGCACACTTTACTATCAATTAGCTGGTAACGATATTGCTCAATACCCATTGCTCGCACTGGAAGATGTGCAAGAAGGCAGCCTATTTAGCCGCCTATGGGATTACTTGGTTCTGCTGTTCAAAAGCTGGTTTTAA”, with “not soluble”; and “SHMAGHQIVHVRGDSETDLEALFNAVMNPKTANVPQTVPMRLRKLPDSFFKPPEPKSHSRQASTDAGTAGALTPQHVRAHSSPASLQLGAVSPGTLTPTGVVSGPAATPTAQHLRQSSFEIPDDV”, with “soluble”; and “MSEPTYFMPPEWAPHASTWLSWPHKLESWPGKFEPVPAVFAELAYQLSRSETVNINVLDDAMEAQARELLKERDPEGKYAERIVFHRIPTNDAWCRDHGPNYVIRTQDGRRDKVIMNWEYNAWGGKYEPYDDDNAVPERVAKAQGLPMVSTGMVLEGGAIDVNGAGLLLTTTACLLNPNRNPSLGKAEIEAQLRRYLGIEKVLWLGDGIAGDDTDGHVDDMARFVNENTVVIAVEEDPEDENYKPLRENYELLKTMTGLDGKPLNIVKLPMPEPVYYDGERLPASYANFYIANTVVLVPTYRCPRDQQAIDILQQCFPKREVVGIDCSDLIWGLGAIHCVTHEEPAMLEHHHHHH”, with “soluble”. Then “GPGSMRLTSRGSHNSSQVVYLLDTREFITDCSTVRQVTHFAHVHRLGSPLWLSCELASALGLTLRYMCSPLNIWSPLTGESFVQLASSPALARDTLYKFPINKEFLAPGGVLPHNSGEGSLMALSAAASSDGKPRWYNIPKDVSHLFVLPKNLCQLSVPVHRGGFRPRPFNLWVSTVIAVRMGGLAEAVKTVRTPSSFMTLVNADQMYPSALLAEKELECVLLMRKEGRLGEM”, with “not soluble”.

“MTMIKKIETELLAAKATLSEISGRFKEFSDTQARLSADGDLLGLARLNKEHTGLEDSLLAADDTVRALESRLSVLRQAEYRPQFDKAHKTHLGAVQAETKAAEKLLAAIDAVFSAATDMQNLSDEVAATYHAARDLHNRAGLDHELRWPAPDGQIPIKISDRMNSLRDELVRTIRLYEDRLPQSQSLEGLRIIEQQQEELVRNSGRGFR”: the “soluble on expression in E. coli” value is reported as “soluble”. Consider “MNNNTTAPTYTLRGLQLIGWRDMQHALDYLFADGQLKQGTLVAINAEKMLTIEDNAEVRELINAAEFKYADGISVVRSVRKKYPQAQVSRVAGADLWEELMARAGKEGTPVFLVGGKPEVLAQTEAKLRNQWNVNIVGSQDGYFKPEQRQALFERIHASGAQIVTVAMGSPKQEIIMRDCRLVHPDALYMGVGGTYDVFTGHVKRAPKIWQTLGLEWLYRLLSQPSRIKRQLRLLRYLRWHYTGNL”, for which the “soluble on expression in E. coli” value was “soluble”. The result for “MGSDKIHHHHHHMTESSINLLFSIDNRFVEQFKVTLYSLYQNTSNKNLKIYMLQKELLADHKAIERFCYQLGLSYKPIIIGEEDFKDAPVSDRYPETIYYRLLAQDYLPKSLDKILYLDADILCLNDIAPLYQMDMKNYIYAAASHVSDKSITDIVNKLRLNNFEAEGYFNSGVLLMNLEQCRQKIKPQDIMNYISRKGNTLLLPDQDVLNALYGTKTHLIPDEIYNYDARYNIIYFTRSLGEWDLDWVIENTVFLHFCGKDKPWRKDYKGRYAALYKHYQHRVKILEK” reads “not soluble”; that for “MGSSHHHHHHSSGLVPRGSHMAEQVLPQALYLSNMRKAVKIRERTPEDIFKPTNGIIHHFKTMHRYTLEMFRTCQFCPQFREIIHKALIDRNIQATLESQKKLNWCREVRKLVALKTNGDGNCLMHATSQYMWGVQDTDLVLRKALFSTLKETDTRNFKFRWQLESLKSQEFVETGLCYDTRNWNDEWDNLIKMASTDTPMARSGLQYNSLEEIHIFVLCNILRRPIIVISDKMLRSLESGSNFAPLKVGGIYLPLHWPAQECYRYPIVLGYDSHHFVPLVTLKDSGPEIRAVPLVNRDRGRFEDLKVHFLTDPENEMKEKLLKEYLMVIEIPVQGWDHGTTHLINAAKLDEANLPKEINLVDDYFELVQHEYKKWQENSEQGRREGHAQ”, “soluble”; that for “MKYLSAKSKLNIDAQDGGFTTTLLSYCLENGILDAVVVVGDKNWKPVAYLATTPTELLKSTKSKYSISPNNKLLEYATENYDKVGLVGLPCHILGGLQFDLTLKVGLFCTKNFYYDTIKSIIKERFGVNIDEVAKMNITKGKFVVETLKKKGFAGTEKVVYEIPIKEIEKLCNLGCRVCTDFSAKYADVSVGSVGSEDGWNTVIVRNKMVEDIINEMAEKGLIEVKETVDIKAIEKLENIKKKNEEINKCSAYFAVCPALFLEHHHHHH”, “not soluble”. In the case of “MAVLGRKSDRAVFDDGPVPRYEAVKQFIRSRIESGEWPPHHRVPSENDIVADLGVSRMTANRALRELASEGAITRVQGVGSFVAAHKGSTALLEVRNIADEIRERGHRHTSRITLLEEEQASTEVAEALGLAAKARVFHSIIVHAEDDVPIQIEDRFVNPAICPNYLEQDFTSMTPNVYLTLVAPITRTEQIVEAVLPKPWECKLLSIGRGEPCLMIRRRTWSEAANVTVAWLTYPGTRYRLEGVSQ”, the “soluble on expression in E. coli” value is “not soluble”.

“TESVYITTPYLIIDYDLTETIKNAAMRGVDVRIITPYIPDKKFIQLVTRGAYPDLLSAGVRIYEYSPGFIHSKQMLVDEDFAVVGTINLDYRSLVHHYENAVLLYKTPSIREIARDFRNIFADSQEVYPHSIKT”: the “soluble on expression in E. coli” value is “not soluble”.

Consider “MAKIILRHLIEIPVRYQEEFEARGLEDCRLDHALYALPGPTIVDLRKTRAAQSPPVDSAAETPPREGKSHFQILLDVVQFLPEDIIIQTFEGWLLIKAQHGTRMDEHGFISRSFTRQYKLPDGVEIKDLSAVLCHDGILVVEVKDPVGTK”, for which the “soluble on expression in E. coli” value is given as “soluble”.

Values taken from the DeepSol protein solubility set.
